Data: the supplement of paper PMC10065799, “High-throughput profiling of sequence recognition by tyrosine kinases and SH2 domains using bacterial peptide display” (eLife, 2023)

What was measured:
c-Src SH2 = experiment: SH2 binding enrichment of the phosphorylated peptide, bacterial display (enrichment ratio); higher = better substrate or ligand; peptides without Tyr show the background
SHP2-C SH2 = experiment: as above
Grb2 SH2 = Grb2 SH2 (UniProt P62993); experiment: as above
c-Src = experiment: phosphorylation enrichment, bacterial display (enrichment ratio); higher = better substrate or ligand; peptides without Tyr show the background
Fes = Fes (UniProt P07332); experiment: as above
Fes, sequence (P07332 whole entry, looked up): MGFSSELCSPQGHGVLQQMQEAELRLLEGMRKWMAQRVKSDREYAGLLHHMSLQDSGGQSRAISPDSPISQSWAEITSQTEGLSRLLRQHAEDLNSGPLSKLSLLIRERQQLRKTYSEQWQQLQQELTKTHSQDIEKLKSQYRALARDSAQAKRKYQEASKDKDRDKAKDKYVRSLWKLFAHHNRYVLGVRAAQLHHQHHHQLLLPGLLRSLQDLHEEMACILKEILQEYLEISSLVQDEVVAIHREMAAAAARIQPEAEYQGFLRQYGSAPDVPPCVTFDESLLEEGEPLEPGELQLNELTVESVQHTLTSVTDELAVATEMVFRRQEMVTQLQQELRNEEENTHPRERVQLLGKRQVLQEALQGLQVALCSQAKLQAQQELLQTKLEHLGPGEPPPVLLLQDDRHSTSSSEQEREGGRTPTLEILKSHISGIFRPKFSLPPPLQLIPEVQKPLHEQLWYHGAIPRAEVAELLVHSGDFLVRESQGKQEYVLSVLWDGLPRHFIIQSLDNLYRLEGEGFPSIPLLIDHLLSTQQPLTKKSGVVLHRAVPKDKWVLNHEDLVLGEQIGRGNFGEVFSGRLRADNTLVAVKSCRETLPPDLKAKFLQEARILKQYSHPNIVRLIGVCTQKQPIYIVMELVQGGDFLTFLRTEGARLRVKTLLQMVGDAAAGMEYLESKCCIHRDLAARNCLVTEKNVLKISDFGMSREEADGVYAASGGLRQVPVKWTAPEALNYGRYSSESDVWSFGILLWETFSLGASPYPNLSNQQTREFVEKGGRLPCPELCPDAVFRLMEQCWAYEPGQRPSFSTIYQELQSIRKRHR

c-Abl (mouse) = experiment: as above
FGFR3 = FGFR3 (UniProt P22607); experiment: as above
FGFR3, sequence (P22607 whole entry, looked up): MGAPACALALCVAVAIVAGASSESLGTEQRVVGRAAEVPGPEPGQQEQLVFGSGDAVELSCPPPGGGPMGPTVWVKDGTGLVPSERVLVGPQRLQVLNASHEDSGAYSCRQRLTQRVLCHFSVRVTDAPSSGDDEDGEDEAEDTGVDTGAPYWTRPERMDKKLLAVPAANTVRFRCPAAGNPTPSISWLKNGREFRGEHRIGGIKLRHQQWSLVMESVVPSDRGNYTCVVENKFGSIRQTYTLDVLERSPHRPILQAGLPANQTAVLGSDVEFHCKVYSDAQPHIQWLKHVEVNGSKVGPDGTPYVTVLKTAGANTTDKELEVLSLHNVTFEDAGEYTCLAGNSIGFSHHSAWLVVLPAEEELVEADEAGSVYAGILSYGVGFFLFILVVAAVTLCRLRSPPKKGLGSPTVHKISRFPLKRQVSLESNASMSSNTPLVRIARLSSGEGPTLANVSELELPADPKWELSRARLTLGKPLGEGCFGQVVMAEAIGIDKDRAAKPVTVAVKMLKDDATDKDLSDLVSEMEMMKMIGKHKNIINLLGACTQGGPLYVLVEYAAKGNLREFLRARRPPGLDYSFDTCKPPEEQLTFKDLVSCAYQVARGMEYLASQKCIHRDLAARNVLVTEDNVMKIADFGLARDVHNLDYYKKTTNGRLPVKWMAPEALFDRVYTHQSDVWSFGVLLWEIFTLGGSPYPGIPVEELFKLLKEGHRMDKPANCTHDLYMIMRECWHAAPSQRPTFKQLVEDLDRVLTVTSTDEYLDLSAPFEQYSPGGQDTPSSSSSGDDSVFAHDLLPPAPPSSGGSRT

Fer (mouse) = experiment: as above
MERTK = MERTK (UniProt Q12866); experiment: as above
MERTK, sequence (Q12866 whole entry, looked up): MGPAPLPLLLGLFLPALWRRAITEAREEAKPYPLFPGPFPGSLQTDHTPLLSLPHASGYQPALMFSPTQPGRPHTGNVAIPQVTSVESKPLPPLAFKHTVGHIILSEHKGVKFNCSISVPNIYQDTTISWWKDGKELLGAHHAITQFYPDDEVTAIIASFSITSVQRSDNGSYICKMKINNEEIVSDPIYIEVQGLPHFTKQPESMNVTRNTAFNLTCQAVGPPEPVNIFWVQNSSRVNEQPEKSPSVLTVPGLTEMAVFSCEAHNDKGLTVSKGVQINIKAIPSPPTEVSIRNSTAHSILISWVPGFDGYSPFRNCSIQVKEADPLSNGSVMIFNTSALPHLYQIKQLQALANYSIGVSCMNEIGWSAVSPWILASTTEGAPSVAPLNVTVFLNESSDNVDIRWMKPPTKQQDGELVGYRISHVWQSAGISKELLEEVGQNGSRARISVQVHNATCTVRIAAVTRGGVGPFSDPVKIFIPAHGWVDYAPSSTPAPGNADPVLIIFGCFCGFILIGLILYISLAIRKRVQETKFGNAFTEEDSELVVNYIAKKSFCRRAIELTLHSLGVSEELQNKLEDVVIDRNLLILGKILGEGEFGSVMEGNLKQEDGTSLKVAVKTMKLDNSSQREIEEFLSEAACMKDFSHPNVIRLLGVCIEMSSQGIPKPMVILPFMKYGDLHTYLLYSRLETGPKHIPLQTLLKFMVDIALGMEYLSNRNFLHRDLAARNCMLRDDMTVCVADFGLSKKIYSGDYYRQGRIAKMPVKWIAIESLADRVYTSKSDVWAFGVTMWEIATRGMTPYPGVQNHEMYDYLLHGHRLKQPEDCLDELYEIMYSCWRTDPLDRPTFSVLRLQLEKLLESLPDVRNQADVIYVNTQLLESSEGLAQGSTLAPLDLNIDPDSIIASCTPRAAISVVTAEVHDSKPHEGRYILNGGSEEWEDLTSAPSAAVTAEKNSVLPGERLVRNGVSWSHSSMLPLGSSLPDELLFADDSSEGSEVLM

EPHB2 = EPHB2 (UniProt P29323); experiment: as above
FGFR1 = FGFR1 (UniProt P11362); experiment: as above
Jak2 = Jak2 (UniProt O60674); experiment: as above
Jak2, sequence (O60674 whole entry, looked up): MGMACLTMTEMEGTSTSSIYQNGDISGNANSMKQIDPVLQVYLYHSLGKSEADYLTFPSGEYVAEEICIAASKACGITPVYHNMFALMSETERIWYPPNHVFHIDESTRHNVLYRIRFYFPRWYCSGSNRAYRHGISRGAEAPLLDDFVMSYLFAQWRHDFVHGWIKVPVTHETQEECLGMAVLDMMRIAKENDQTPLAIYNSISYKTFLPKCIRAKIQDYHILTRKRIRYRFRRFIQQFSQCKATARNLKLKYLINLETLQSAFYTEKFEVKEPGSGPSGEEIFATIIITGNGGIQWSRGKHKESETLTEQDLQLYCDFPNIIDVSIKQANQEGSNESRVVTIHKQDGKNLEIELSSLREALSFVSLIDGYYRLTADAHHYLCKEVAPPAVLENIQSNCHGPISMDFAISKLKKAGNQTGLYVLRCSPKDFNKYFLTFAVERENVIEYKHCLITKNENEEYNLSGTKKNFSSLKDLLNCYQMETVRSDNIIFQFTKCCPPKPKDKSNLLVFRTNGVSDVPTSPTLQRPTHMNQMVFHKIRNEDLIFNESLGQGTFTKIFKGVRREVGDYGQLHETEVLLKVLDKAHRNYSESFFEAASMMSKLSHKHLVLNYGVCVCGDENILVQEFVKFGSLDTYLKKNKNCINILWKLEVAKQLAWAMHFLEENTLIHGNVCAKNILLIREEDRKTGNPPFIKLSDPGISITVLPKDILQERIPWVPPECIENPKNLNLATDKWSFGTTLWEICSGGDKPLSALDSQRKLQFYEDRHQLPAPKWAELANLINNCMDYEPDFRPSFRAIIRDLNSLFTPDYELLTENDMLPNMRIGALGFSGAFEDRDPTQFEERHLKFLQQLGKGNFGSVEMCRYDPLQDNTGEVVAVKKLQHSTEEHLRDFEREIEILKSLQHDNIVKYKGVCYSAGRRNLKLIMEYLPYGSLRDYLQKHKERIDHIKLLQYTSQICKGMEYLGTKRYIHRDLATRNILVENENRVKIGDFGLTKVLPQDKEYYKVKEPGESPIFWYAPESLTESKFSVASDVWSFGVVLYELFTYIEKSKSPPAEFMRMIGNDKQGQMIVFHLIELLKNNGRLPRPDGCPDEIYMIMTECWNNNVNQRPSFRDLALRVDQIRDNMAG

Fyn = Fyn (UniProt P06241); experiment: as above
Fyn, sequence (P06241 whole entry, looked up): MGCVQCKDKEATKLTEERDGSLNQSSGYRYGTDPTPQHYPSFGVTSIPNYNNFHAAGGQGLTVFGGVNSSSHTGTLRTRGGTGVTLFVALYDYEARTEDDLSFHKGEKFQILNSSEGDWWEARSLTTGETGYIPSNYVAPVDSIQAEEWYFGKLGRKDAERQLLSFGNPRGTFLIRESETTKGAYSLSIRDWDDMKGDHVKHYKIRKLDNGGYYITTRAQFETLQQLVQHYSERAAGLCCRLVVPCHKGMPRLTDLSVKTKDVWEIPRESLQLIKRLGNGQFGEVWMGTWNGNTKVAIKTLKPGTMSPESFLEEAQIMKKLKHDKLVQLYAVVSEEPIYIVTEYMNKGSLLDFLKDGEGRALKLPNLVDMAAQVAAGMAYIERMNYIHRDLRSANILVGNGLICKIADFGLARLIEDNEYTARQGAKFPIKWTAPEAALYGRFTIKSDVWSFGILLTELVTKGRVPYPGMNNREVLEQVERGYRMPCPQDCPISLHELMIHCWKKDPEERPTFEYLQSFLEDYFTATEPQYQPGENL

AncSZ = experiment: as above
EPHB1 = EPHB1 (UniProt P54762); experiment: as above
Hck = Hck (UniProt P08631); experiment: as above
Hck, sequence (P08631 whole entry, looked up, the tested form may be a part): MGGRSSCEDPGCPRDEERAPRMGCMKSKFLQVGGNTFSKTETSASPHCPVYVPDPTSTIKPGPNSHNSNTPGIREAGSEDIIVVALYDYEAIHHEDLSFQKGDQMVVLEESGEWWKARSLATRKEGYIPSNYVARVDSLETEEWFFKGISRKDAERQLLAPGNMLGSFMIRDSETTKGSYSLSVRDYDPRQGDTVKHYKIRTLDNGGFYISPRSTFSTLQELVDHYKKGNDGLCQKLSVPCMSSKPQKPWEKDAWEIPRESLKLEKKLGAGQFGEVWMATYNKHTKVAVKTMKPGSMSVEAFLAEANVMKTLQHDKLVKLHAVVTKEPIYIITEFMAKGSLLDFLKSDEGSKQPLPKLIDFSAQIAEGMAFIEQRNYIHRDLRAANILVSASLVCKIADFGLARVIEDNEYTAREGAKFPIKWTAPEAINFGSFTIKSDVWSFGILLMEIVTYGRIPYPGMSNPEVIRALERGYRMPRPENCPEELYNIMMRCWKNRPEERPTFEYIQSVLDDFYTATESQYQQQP
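Wherever SH2 binding enrichment of the phosphorylated peptide, bacterial display is given: peptide library displayed on the E. coli surface as eCPX fusions, selected cells deep-sequenced, score is each peptide's frequency after selection divided by its frequency in the input.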
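Wherever phosphorylation enrichment, bacterial display is given: 11-residue human phosphosite peptides and single-mutation variants displayed on the E. coli surface, counted by deep sequencing, each peptide's frequency after selection divided by its frequency in the unselected input library; frequency after pTyr selection over input frequency; kinase dosed for 20-30% of maximal phosphorylation in three min.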

Grb2 SH2, sequence (P62993 whole entry, looked up): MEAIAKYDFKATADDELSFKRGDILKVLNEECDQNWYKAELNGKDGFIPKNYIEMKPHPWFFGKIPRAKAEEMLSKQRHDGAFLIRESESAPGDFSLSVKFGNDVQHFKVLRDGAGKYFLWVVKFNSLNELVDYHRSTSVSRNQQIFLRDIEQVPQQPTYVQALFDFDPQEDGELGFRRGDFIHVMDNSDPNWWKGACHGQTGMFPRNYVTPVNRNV

| Sequence | SH2 binding enrichment (c-Src SH2) | SH2 binding enrichment (SHP2-C SH2) | SH2 binding enrichment (Grb2 SH2) | phosphorylation enrichment (c-Src) | phosphorylation enrichment (Fes) | phosphorylation enrichment (c-Abl (mouse)) | phosphorylation enrichment (FGFR3) | phosphorylation enrichment (Fer (mouse)) | phosphorylation enrichment (MERTK) | phosphorylation enrichment (EPHB2) | phosphorylation enrichment (FGFR1) | phosphorylation enrichment (Jak2) | phosphorylation enrichment (Fyn) | phosphorylation enrichment (AncSZ) | phosphorylation enrichment (EPHB1) | phosphorylation enrichment (Hck) |
| --- | --- | --- | --- | --- | --- | --- | --- | --- | --- | --- | --- | --- | --- | --- | --- | --- |
| VRFMEYETQVK [TARDBP_Y155_T153M] | 0.52 | 0.958 | 0.888 | 0.481 | 0.981 | 0.73 | 0.694 | 0.418 | 0.373 | 1.14 | 0.394 | 0.979 | 0.384 | 0.943 | 1.25 | 0.459 |
| VRTGIYHGREP [PIK3CA_Y361_G364R] | 0.568 | 0.766 | 1.06 | 0.503 | 0.599 | 0.581 | 0.46 | 0.374 | 0.291 | 0.38 | 0.324 | 0.491 | 0.357 | 0.478 | 0.302 | 0.638 |
| VSFDEYRFRSF [CFTR_Y515_V520F_YF] | 0.393 | 0.715 | 0.834 | 0.561 | 1.12 | 0.982 | 0.739 | 0.502 | 0.45 | 0.568 | 0.514 | 1.11 | 0.569 | 0.903 | 0.612 | 0.484 |
| VSLLPYFPAIM [IPO4_Y518_A513V] | 0.602 | 0.848 | 0.902 | 0.443 | 1.32 | 0.754 | 0.873 | 0.508 | 0.369 | 0.657 | 0.719 | 2.06 | 0.541 | 1.12 | 0.646 | 0.541 |
| VTAALYGRLFE [BTD_Y536_YF] | 0.627 | 1.16 | 1.16 | 4.97 | 0.734 | 0.626 | 0.527 | 0.436 | 1.08 | 0.656 | 0.439 | 0.633 | 6.32 | 0.748 | 0.535 | 5.74 |
| VTRANYFIRDE [GNAS_Y339_K338N] | 0.434 | 0.8 | 0.984 | 0.494 | 0.736 | 0.712 | 0.621 | 0.45 | 0.45 | 0.449 | 0.412 | 0.845 | 0.474 | 0.705 | 0.541 | 0.388 |
| VVGMLYVGGLP [LAMA2_Y2886] | 0.461 | 0.785 | 0.78 | 0.388 | 1.2 | 0.742 | 0.683 | 0.486 | 0.449 | 0.644 | 0.491 | 1.08 | 0.455 | 0.999 | 0.727 | 0.454 |
| VVPGSYDRLRV [IFT172_Y260_L257P] | 0.818 | 0.912 | 0.772 | 0.399 | 0.603 | 0.406 | 0.439 | 0.332 | 0.469 | 1.13 | 0.394 | 0.462 | 0.359 | 0.496 | 0.353 | 0.486 |
| WAFNLYDINKY [KCNIP3_Y174_D179Y] | 0.706 | 0.803 | 0.906 | 1.57 | 1.24 | 0.709 | 0.725 | 3.29 | 2.65 | 3.92 | 0.553 | 0.953 | 1.83 | 0.987 | 2.29 | 3.09 |
| WASSSYRETPS [SORBS1_Y79_R74W] | 0.467 | 0.846 | 0.779 | 0.362 | 0.57 | 0.391 | 0.444 | 0.389 | 0.39 | 0.353 | 0.438 | 0.45 | 0.402 | 0.57 | 0.411 | 0.409 |
| WCSNDHLGMSR [ALAS2_Y199_Y199H] | 0.684 | 0.811 | 0.801 | 0.447 | 0.671 | 0.504 | 0.576 | 0.438 | 0.418 | 0.514 | 0.416 | 0.537 | 0.434 | 0.754 | 0.394 | 0.375 |
| WDLPEYSYKDP [ITGA3_Y237_S235P] | 0.784 | 0.77 | 0.89 | 0.495 | 1.18 | 0.545 | 0.926 | 0.517 | 0.464 | 0.651 | 0.688 | 1.18 | 1.12 | 2.12 | 0.631 | 0.787 |
| WDLSEYSFKDP [ITGA3_Y237_YF] | 0.661 | 1.29 | 0.916 | 2.11 | 1.23 | 0.853 | 0.885 | 0.556 | 0.445 | 0.618 | 0.625 | 1.21 | 2.17 | 2.14 | 0.682 | 0.985 |
| WDSSGYWTPEE [PAPPA2_Y908_C903W] | 36.9 | 2.08 | 1.2 | 0.453 | 1.08 | 0.672 | 0.87 | 0.569 | 0.502 | 0.533 | 0.855 | 1.28 | 0.53 | 1.41 | 0.521 | 0.449 |
| WFKKFYDANYD [MAPRE2_Y158] | 0.581 | 0.722 | 0.82 | 0.364 | 1.03 | 0.774 | 0.552 | 0.398 | 0.399 | 0.529 | 0.43 | 0.899 | 0.398 | 1.18 | 0.477 | 0.423 |
| WIPIQDPIISE [NOG_Y222_Y222D] | 0.488 | 0.748 | 0.729 | 0.557 | 1.24 | 0.882 | 0.717 | 0.52 | 0.474 | 0.551 | 0.578 | 0.965 | 0.578 | 1.18 | 0.678 | 0.622 |

| Sequence | SH2 binding enrichment (c-Src SH2) | SH2 binding enrichment (SHP2-C SH2) | SH2 binding enrichment (Grb2 SH2) | phosphorylation enrichment (c-Src) | phosphorylation enrichment (Fes) | phosphorylation enrichment (c-Abl (mouse)) | phosphorylation enrichment (FGFR3) | phosphorylation enrichment (Fer (mouse)) | phosphorylation enrichment (MERTK) | phosphorylation enrichment (EPHB2) | phosphorylation enrichment (FGFR1) | phosphorylation enrichment (Jak2) | phosphorylation enrichment (Fyn) | phosphorylation enrichment (AncSZ) | phosphorylation enrichment (EPHB1) | phosphorylation enrichment (Hck) |
| --- | --- | --- | --- | --- | --- | --- | --- | --- | --- | --- | --- | --- | --- | --- | --- | --- |
| WKKKIYEESST [MOCS2_Y170_E168K] | 0.415 | 0.481 | 0.62 | 0.448 | 1.05 | 0.761 | 0.813 | 0.449 | 0.432 | 0.526 | 0.423 | 0.794 | 0.534 | 0.818 | 0.393 | 0.511 |
| WNDLDYVDSRR [GAA_Y407_M408V] | 0.643 | 0.796 | 0.903 | 0.478 | 0.94 | 0.53 | 0.67 | 0.45 | 0.357 | 0.869 | 0.567 | 0.89 | 0.373 | 1.44 | 0.515 | 0.521 |
| WNDPDYMDSRR [GAA_Y407_L405P] | 0.417 | 0.581 | 0.679 | 0.453 | 1 | 0.614 | 0.727 | 0.432 | 0.351 | 0.687 | 0.553 | 0.779 | 0.493 | 1.46 | 0.989 | 0.472 |
| WQQQSYLASGI [CTNNB1_Y30_D32A] | 0.52 | 0.588 | 0.822 | 0.5 | 0.754 | 0.686 | 0.533 | 0.442 | 0.411 | 0.51 | 0.463 | 0.638 | 0.487 | 0.642 | 0.532 | 0.447 |
| WQQQSYLGSGI [CTNNB1_Y30_D32G] | 0.499 | 0.664 | 0.858 | 0.421 | 0.61 | 0.521 | 0.493 | 0.389 | 0.357 | 0.469 | 0.634 | 0.544 | 0.372 | 0.748 | 0.362 | 0.471 |
| WRPFGYPRRRR [BCS1L_Y181] | 0.349 | 0.66 | 0.731 | 0.446 | 0.513 | 0.444 | 0.522 | 0.462 | 0.487 | 0.481 | 0.367 | 0.494 | 0.518 | 0.615 | 0.486 | 0.453 |
| WSQAMYPDLGP [STARD8_Y330_R327Q] | 0.774 | 0.766 | 1.07 | 0.47 | 0.921 | 0.648 | 0.583 | 0.475 | 0.393 | 0.636 | 0.493 | 0.765 | 0.47 | 1.06 | 0.476 | 0.486 |
| YAREGYSALPQ [SARS2_Y52] | 0.552 | 0.577 | 0.901 | 0.373 | 0.789 | 0.541 | 0.52 | 0.439 | 0.442 | 0.459 | 0.522 | 0.904 | 0.396 | 0.678 | 0.499 | 0.58 |
| YCRIMYDIFPF [INTS13_Y67] | 1.64 | 1.12 | 1.01 | 2.98 | 1.48 | 1.7 | 2.89 | 2.06 | 4.92 | 5.07 | 3.47 | 1.51 | 2.55 | 1.85 | 6.02 | 3.78 |
| YGTAQYCCRMG [LRRK2_Y2023_I2020T] | 0.823 | 0.752 | 0.991 | 0.757 | 0.613 | 3.23 | 0.603 | 0.603 | 2.78 | 9.81 | 0.498 | 0.506 | 1.01 | 0.719 | 0.714 | 1.2 |
| YISLIYTNYEA [GSTP1_Y109] | 1.75 | 1.53 | 1.24 | 4.21 | 1.23 | 1.31 | 3.6 | 1.72 | 3.44 | 1.71 | 4.5 | 1.23 | 3.72 | 1.68 | 1.7 | 2.83 |
| YPKVRYHWLVL [APTX_Y214_A212V] | 0.756 | 1.17 | 1.05 | 0.474 | 1.35 | 1.15 | 1.03 | 0.506 | 0.448 | 0.758 | 0.681 | 1.06 | 0.531 | 1 | 0.652 | 0.547 |
| YRASYYRKGGC [ALK_Y1283] | 0.484 | 0.512 | 0.691 | 0.552 | 0.677 | 0.653 | 0.513 | 0.636 | 0.561 | 0.435 | 0.514 | 0.678 | 0.485 | 0.808 | 0.57 | 0.488 |
| YRIDHYLGKEM [G6PD_Y202] | 0.589 | 0.665 | 0.678 | 0.485 | 0.909 | 0.706 | 0.654 | 0.445 | 0.508 | 0.627 | 0.57 | 0.865 | 0.757 | 0.716 | 0.467 | 0.57 |
| YRRITYHNWRH [PDE6B_Y556] | 0.453 | 0.553 | 1.15 | 0.606 | 0.637 | 0.53 | 0.425 | 0.452 | 0.562 | 0.362 | 0.386 | 0.585 | 0.525 | 0.642 | 0.376 | 0.477 |
| YTHSDYQYGQR [PKP2_Y166_S169G] | 0.692 | 0.885 | 0.712 | 0.439 | 0.496 | 0.492 | 0.606 | 0.572 | 0.424 | 0.416 | 0.531 | 0.317 | 0.476 | 0.867 | 0.436 | 0.703 |
